# Assay results from US20250326862A1, “Antibody or Fragment Thereof Binding Specifically to Mertk, and Anti-Tumor Agent” (Chiome Bioscience Inc., priority 2021, published 2025).
# Key:
# [1] = administration to mice; Non-Patent Document 3; cited from earlier work
# [2] = Test 7: in vivo ocular toxicity test, TB staining of eye sections; design: species or system Balb/c mice; details: eyes removed day 29, FIG. 17
# Procedure: The ocular toxicity test was carried out using Balb/c mice. The mice intravenously received “20A77_mIgG1”, “24A1_mIgG1” or an isotype control antibody mIgG1 at a dose of 10 mg/kg at a frequency of twice a week. As a positive control of ocular toxicity, mice orally received a MerTK small molecule inhibitor UNC569 at a dose of 150 mg/kg for 10 days. At day 29 after the first administration, eyes were removed, fixed with a Karnovsky's fixative and then subjected to embedding in a resin, preparation of sections and toluidine blue staining (hereinafter also referred to as “TB staining”) carried out by Applied Medical Research Laboratory.
# [3] = test system: mouse colon cancer cell line CT26; assay: Test 4: efficacious dosage in CT26 syngeneic tumor model; assay type: in vivo, Balb/c mice; details: vs solvent control
# Procedure: (§1) CT26 cells (5×10^6 cells per mouse) were subcutaneously transplanted to Balb/c mice at the right flank. After 5 days of the tumor transplantation, the mice were divided into groups and an isotype control antibody mIgG2a and “20A77_mIgG2a” were respectively intraperitoneally administered at a dose of 10 mg/kg at a frequency of twice a week. After the administration, the tumor size was measured at a frequency of twice a week until day 19 after the tumor transplantation. The tumor size was calculated from the equation below with the minor axis and the major axis of the tumor measured using calipers:
# On the basis of the procedures indicated below, anti-tumor effects of “20A77_mIgG1” and “24A1_mIgG1” according to the dosage thereof were evaluated. As “Test 3” above, a syngeneic tumor model using the mouse colon cancer cell line CT26 (ATCC) was used for the evaluation.
# In the “20A77_mIgG1” administration group, a solvent (1% histidine buffer, pH 6.0) and “20A77_mIgG1” were intraperitoneally administered at a dose of 3, 10 or 30 mg/kg at a frequency of twice a week. […] The tumor size was measured at a frequency of twice a week until day 19 and 22 after the tumor transplantation for the “20A77_mIgG1” and “24A1_mIgG1” administration groups, respectively.
# [4] = test system: mouse colon cancer cell line CT26; assay: Test 5: combined administration with anti-PD-1 antibody in CT26 syngeneic tumor model; assay type: in vivo, Balb/c mice; details: 5 mg/kg plus anti-mouse PD-1 antibody 29F.1A12 0.3 mg/kg, twice a week until day 19; FIGS. 11 and 12
# Procedure: as §1
# On the basis of the procedures indicated below, anti-tumor effects of combined use of each of “20A77_mIgG1” and “24A1_mIgG1” and an anti-PD-1 antibody were evaluated. As “Test 3” above, a syngeneic tumor model using the mouse colon cancer cell line CT26 (ATCC) was used for the evaluation. Anti-PD-1 antibodies are known to have anti-tumor effects.
# The administration groups received the antibodies indicated below at a frequency of twice a week. […]
Molecule,ocular toxicity: toluidine blue-positive granules and vacuoles in photoreceptor [1],"TB-positive granules in the retinal pigment epithelium ([2]; positive control, 150 mg/kg oral for 10 days)","tumor growth suppressing effect ([3]; 5 mg/kg intraperitoneal twice a week, until day 22, FIGS. 9 and 10)","tumor growth suppressing effect ([3]; 30 mg/kg intraperitoneal twice a week, day 19 (20A77_mIgG1) or day 22 (24A1_mIgG1))",TB-positive granules in the retinal pigment epithelium ([2]; 10 mg/kg intravenous twice a week),anti-tumor effects of combined use with anti-PD-1 antibody [4]
"CCCCNc1ncc2c(-c3ccc(F)cc3)nn(CC3CCC(N)CC3)c2n1 (stereo not drawn) [UNC569, reference compound]","increased toluidine blue-positive granules and vacuoles in photoreceptor, resulting in ocular toxicity",increased TB-positive granules,,,,
"24A1_mIgG1: recombinant mouse IgG1 antibody with 24A1 variable regions (antibody, V domains shown) VH: EVQLVESGGGLVQPKGSLKLSCAASGFTFNVYDMHWVRQAPGEGLEWVARIRSKSSNYATNYADSVKDRFTISRDDSQSMLYLQMNNLQTEDTAIYYCVRDGSHYYYALDYWGQGTSVTVSS VL: DIQMTQTTSSLSASLGDRVTISCRASQDINNYLNWYQQKLDGTVKLLIYYSSRLHSGVPSRFSGSGSGTDYSLTISNLEQEDIATYFCQQGKMFPWTFGGGTKLEIK",,,significant tumor growth suppression,significant tumor growth suppression,no increase in TB-positive granules was observed,had enhanced anti-tumor effects
